Assay results as given in the supplement of paper PMC10567573.

B1: VPS39 (parent)
chain: LRLENNHCHIEESEHVLKKAHKYS

Variants of: B1
Test: protein stability index of a GFP-peptide fusion (GPS, HEK-293T) (PSI 1-6); higher = more stable
Details: c terminus: a fixed tail appended
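Note: lentivirally expressed fusions sorted by FACS into six bins by GFP to DsRed ratio, PSI derived from sequencing read proportions per bin multiplied by bin number.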

**Q.** Which protein stability index does the source give for LRLENNHCHIWESEHVLKKAHKYS [E11W] here?
**A.** 2.75

**Q.** For LRLENNHCHIFESEHVLKKAHKYS [E11F], which protein stability index is on record?
**A.** 1.75

**Q.** For LRLENNHCHIGESEHVLKKAHKYS [E11G], which protein stability index is on record?
**A.** 2.72

**Q.** With LRLENNHCHIEESEHVLTKAHKYS [K18T] as the variant, how does the protein stability index read?
**A.** 1.87

**Q.** With LRLENNHCHIEESEHVLRKAHKYS [K18R] as the variant, how does the protein stability index read?
**A.** 2.21

**Q.** For LRLENNHCHIEESEHVLPKAHKYS [K18P], which protein stability index is on record?
**A.** 1.85

**Q.** For LRLENNHCHIEESEHVLHKAHKYS [K18H], which protein stability index is on record?
**A.** 2.17

**Q.** With LRLENNHCHIEESEHVLLKAHKYS [K18L] as the variant, how does the protein stability index read?
**A.** 1.88

**Q.** Which protein stability index does the source give for LRLENNHCHIEESEHVLVKAHKYS [K18V] here?
**A.** 2.54

**Q.** Which protein stability index does the source give for LRLENNHCHIEESEHVLKKMHKYS [A20M] here?
**A.** 1.98

**Q.** For LRLENNHCHIEESEHVLKKKHKYS [A20K], which protein stability index is on record?
**A.** 2.13

**Q.** With LRLENNHCHIEESEHVLKKVHKYS [A20V] as the variant, how does the protein stability index read?
**A.** 2.52

**Q.** With LRLENNHCHIEESEHVLKKGHKYS [A20G] as the variant, how does the protein stability index read?
**A.** 2.73

**Q.** For LRLENNHCHIEESEHVLKKTHKYS [A20T], which protein stability index is on record?
**A.** 2.43

**Q.** With LRLENNHCHIEESEHVLKKPHKYS [A20P] as the variant, how does the protein stability index read?
**A.** 2.23

**Q.** Which protein stability index does the source give for LRLENNHCHIEESECVLKKAHKYS [H15C] here?
**A.** 2.18

**Q.** For LRLENNHCHIEESEAVLKKAHKYS [H15A], which protein stability index is on record?
**A.** 2.87

**Q.** For LRLENNHCHIEESELVLKKAHKYS [H15L], which protein stability index is on record?
**A.** 2.1

**Q.** For LRLENNHCHIEESEQVLKKAHKYS [H15Q], which protein stability index is on record?
**A.** 1.98

**Q.** For LRLENNHCHIEESESVLKKAHKYS [H15S], which protein stability index is on record?
**A.** 2.64

**Q.** With LRLENNHCHIEESEMVLKKAHKYS [H15M] as the variant, how does the protein stability index read?
**A.** 3.02

**Q.** Which protein stability index does the source give for LRLENNHCHIEESEEVLKKAHKYS [H15E] here?
**A.** 2.6

**Q.** With LRLENNHCHIEESEHVLKKAHKVS [Y23V] as the variant, how does the protein stability index read?
**A.** 2.05

**Q.** For LRLENNHCHIEESEHVLKKAHKGS [Y23G], which protein stability index is on record?
**A.** 2.75

**Q.** For LRLENNHCHIEESEHVLKKAHKES [Y23E], which protein stability index is on record?
**A.** 3.12

**Q.** Which protein stability index does the source give for LRLENNHCHIEESEHVLKKAQKYS [H21Q] here?
**A.** 2.62

**Q.** With LRLENNHCHIEESEHVLKKAMKYS [H21M] as the variant, how does the protein stability index read?
**A.** 1.81

**Q.** Which protein stability index does the source give for LRLENNHCHIEESEHVLKKAPKYS [H21P] here?
**A.** 1.97

**Q.** With LRLENNHCHIEESEHVLKKAIKYS [H21I] as the variant, how does the protein stability index read?
**A.** 1.38

**Q.** Which protein stability index does the source give for LRLENNHCHIEESEHVLKKANKYS [H21N] here?
**A.** 2.68

**Q.** For LRLENNHCHIEESEHVLKKAAKYS [H21A], which protein stability index is on record?
**A.** 3.18

**Q.** Which protein stability index does the source give for LRLENNHCHIEESEHVLKKAHKYY [S24Y] here?
**A.** 2.28

**Q.** For LRLENNHCHIEESEHVLKKAHKYI [S24I], which protein stability index is on record?
**A.** 2.04

**Q.** With LRLENNHCHIEESEHVLKKAHKYK [S24K] as the variant, how does the protein stability index read?
**A.** 2.09

**Q.** With LDLENNHCHIEESEHVLKKAHKYS [R2D] as the variant, how does the protein stability index read?
**A.** 4.26

**Q.** Which protein stability index does the source give for LMLENNHCHIEESEHVLKKAHKYS [R2M] here?
**A.** 2.66

**Q.** With LGLENNHCHIEESEHVLKKAHKYS [R2G] as the variant, how does the protein stability index read?
**A.** 4.24

**Q.** With LRLENNHCHIEESEHVLKFAHKYS [K19F] as the variant, how does the protein stability index read?
**A.** 1.98

**Q.** For LRLENNHCHIEESEHVLKLAHKYS [K19L], which protein stability index is on record?
**A.** 1.52

**Q.** With LRLENNHCHIEESEHTLKKAHKYS [V16T] as the variant, how does the protein stability index read?
**A.** 2.39

**Q.** Which protein stability index does the source give for LRLENNHCHIEESEHCLKKAHKYS [V16C] here?
**A.** 2.1

**Q.** For LRLENNHCHIEESEHWLKKAHKYS [V16W], which protein stability index is on record?
**A.** 1.49

**Q.** Which protein stability index does the source give for LRLENNHCHSEESEHVLKKAHKYS [I10S] here?
**A.** 3.33

**Q.** Which protein stability index does the source give for LRLENNHCHCEESEHVLKKAHKYS [I10C] here?
**A.** 3.18

**Q.** With LRLENNHCHGEESEHVLKKAHKYS [I10G] as the variant, how does the protein stability index read?
**A.** 2.74

**Q.** With LRLENNHCHTEESEHVLKKAHKYS [I10T] as the variant, how does the protein stability index read?
**A.** 3.02

**Q.** With LRLENNHCHKEESEHVLKKAHKYS [I10K] as the variant, how does the protein stability index read?
**A.** 3.33

**Q.** Which protein stability index does the source give for LRLENNHCLIEESEHVLKKAHKYS [H9L] here?
**A.** 1.84

**Q.** Which protein stability index does the source give for LRLENNHCFIEESEHVLKKAHKYS [H9F] here?
**A.** 1.92

**Q.** For LRLENNHCCIEESEHVLKKAHKYS [H9C], which protein stability index is on record?
**A.** 2.86

**Q.** Which protein stability index does the source give for LRLENNHCAIEESEHVLKKAHKYS [H9A] here?
**A.** 2.2

**Q.** For LRLENNHCGIEESEHVLKKAHKYS [H9G], which protein stability index is on record?
**A.** 2.7

**Q.** Which protein stability index does the source give for LRLENNHCVIEESEHVLKKAHKYS [H9V] here?
**A.** 2.4

**Q.** With LRLENNFCHIEESEHVLKKAHKYS [H7F] as the variant, how does the protein stability index read?
**A.** 2.03

**Q.** Which protein stability index does the source give for LRLENNRCHIEESEHVLKKAHKYS [H7R] here?
**A.** 2.9

**Q.** For LRLENNNCHIEESEHVLKKAHKYS [H7N], which protein stability index is on record?
**A.** 3.37

**Q.** Which protein stability index does the source give for LRLENNPCHIEESEHVLKKAHKYS [H7P] here?
**A.** 3.01

**Q.** For LRLENYHCHIEESEHVLKKAHKYS [N6Y], which protein stability index is on record?
**A.** 2.23

**Q.** Which protein stability index does the source give for LRLENDHCHIEESEHVLKKAHKYS [N6D] here?
**A.** 2.54

**Q.** Which protein stability index does the source give for LRLENEHCHIEESEHVLKKAHKYS [N6E] here?
**A.** 3.13

**Q.** Which protein stability index does the source give for LRLDNNHCHIEESEHVLKKAHKYS [E4D] here?
**A.** 3.12

**Q.** With LRLYNNHCHIEESEHVLKKAHKYS [E4Y] as the variant, how does the protein stability index read?
**A.** 2.53

**Q.** For LRLENNHCHIEESEHVLKKAHPYS [K22P], which protein stability index is on record?
**A.** 2.79

**Q.** With LRLENNHCHIEESEHVLKKAHGYS [K22G] as the variant, how does the protein stability index read?
**A.** 2.96

**Q.** For LRLENNHCHIEESEHVLKKAHNYS [K22N], which protein stability index is on record?
**A.** 2.44

**Q.** For LRLENNHCHIEESEHVLKKAHTYS [K22T], which protein stability index is on record?
**A.** 3.65

**Q.** With LRLENNHCHIEESFHVLKKAHKYS [E14F] as the variant, how does the protein stability index read?
**A.** 1.46

**Q.** With LRLENNHCHIEESPHVLKKAHKYS [E14P] as the variant, how does the protein stability index read?
**A.** 2.4

**Q.** For LRLENNHLHIEESEHVLKKAHKYS [C8L], which protein stability index is on record?
**A.** 2.47

**Q.** With LRLENNHFHIEESEHVLKKAHKYS [C8F] as the variant, how does the protein stability index read?
**A.** 2.29

**Q.** Which protein stability index does the source give for LRLENNHTHIEESEHVLKKAHKYS [C8T] here?
**A.** 3.19

**Q.** Which protein stability index does the source give for LRLENNHSHIEESEHVLKKAHKYS [C8S] here?
**A.** 2.88

**Q.** For LRLENNHQHIEESEHVLKKAHKYS [C8Q], which protein stability index is on record?
**A.** 2.27

**Q.** With LRLENNHAHIEESEHVLKKAHKYS [C8A] as the variant, how does the protein stability index read?
**A.** 3.17

**Q.** With LRLENNHCHIEQSEHVLKKAHKYS [E12Q] as the variant, how does the protein stability index read?
**A.** 2.15

**Q.** With LRLENNHCHIEYSEHVLKKAHKYS [E12Y] as the variant, how does the protein stability index read?
**A.** 3.21

**Q.** For LRLENNHCHIEHSEHVLKKAHKYS [E12H], which protein stability index is on record?
**A.** 2.75

**Q.** Which protein stability index does the source give for LRLENNHCHIESSEHVLKKAHKYS [E12S] here?
**A.** 2.61

**Q.** With LRLENNHCHIEMSEHVLKKAHKYS [E12M] as the variant, how does the protein stability index read?
**A.** 2.68

**Q.** With LRLENNHCHIEFSEHVLKKAHKYS [E12F] as the variant, how does the protein stability index read?
**A.** 1.24

**Q.** Which protein stability index does the source give for LRLENNHCHIECSEHVLKKAHKYS [E12C] here?
**A.** 2.11

**Q.** Which protein stability index does the source give for LRLEQNHCHIEESEHVLKKAHKYS [N5Q] here?
**A.** 2.18

**Q.** Which protein stability index does the source give for LRLERNHCHIEESEHVLKKAHKYS [N5R] here?
**A.** 2.77

**Q.** Which protein stability index does the source give for LRNENNHCHIEESEHVLKKAHKYS [L3N] here?
**A.** 3.17

**Q.** Which protein stability index does the source give for LRDENNHCHIEESEHVLKKAHKYS [L3D] here?
**A.** 3.12

**Q.** Which protein stability index does the source give for LRLENNHCHIEEMEHVLKKAHKYS [S13M] here?
**A.** 1.64

**Q.** For LRLENNHCHIEEAEHVLKKAHKYS [S13A], which protein stability index is on record?
**A.** 2.69

**Q.** With LRLENNHCHIEETEHVLKKAHKYS [S13T] as the variant, how does the protein stability index read?
**A.** 2.37

**Q.** For LRLENNHCHIEEQEHVLKKAHKYS [S13Q], which protein stability index is on record?
**A.** 1.82

**Q.** For SRLENNHCHIEESEHVLKKAHKYS [L1S], which protein stability index is on record?
**A.** 4.19

**Q.** For QRLENNHCHIEESEHVLKKAHKYS [L1Q], which protein stability index is on record?
**A.** 4.08

**Q.** For LRLENNHCHIEESEHVCKKAHKYS [L17C], which protein stability index is on record?
**A.** 2.65

**Q.** For LRLENNHCHIEESEHVSKKAHKYS [L17S], which protein stability index is on record?
**A.** 2.84

**Q.** Which protein stability index does the source give for LRLENNHCHIEESEHVAKKAHKYS [L17A] here?
**A.** 1.83
